Article PMC4756369 (2016)

Columns and labels:
[1] = molecular target: F-actin (skeletal muscle, phalloidin stabilized) (Oryctolagus cuniculus, UniProt P68135); test: co-sedimentation
[2] = molecular target: F-actin (skeletal muscle) (Oryctolagus cuniculus, UniProt P68135); test: co-sedimentation

B1: β-III-spectrin ABD 1-284 (protein)
chain: MSSTLSPTDFDSLEIQGQYSDINNRWDLPDSDWDNDSSSARLFERSRIKALADEREAVQKKTFTKWVNSHLARVTCRVGDLYSDLRDGRNLLRLLEVLSGEILPKPTKGRMRIHCLENVDKALQFLKEQKVHLENMGSHDIVDGNHRLTLGLVWTIILRFQIQDISVETEDNKEKKSAKDALLLWCQMKTAGYPNVNVHNFTTSWRDGLAFNAIVHKHRPDLLDFESLKKCNAHYNLQNAFNLAEKELGLTKPLDPEDVNVDQPDEKSIITYVATYYHYFSKMK
[1]
  Kd: 75.5 nM

B2: β-III-spectrin ABD 1-284 (protein)
chain: MSSTLSPTDFDSLEIQGQYSDINNRWDLPDSDWDNDSSSARLFERSRIKALADEREAVQKKTFTKWVNSHLARVTCRVGDLYSDLRDGRNLLRLLEVLSGEILPKPTKGRMRIHCLENVDKALQFLKEQKVHLENMGSHDIVDGNHRLTLGLVWTIILRFQIQDISVETEDNKEKKSAKDALLLWCQMKTAGYPNVNVHNFTTSWRDGLAFNAIVHKHRPDLLDFESLKKCNAHYNLQNAFNLAEKELGLTKLLDPEDVNVDQPDEKSIITYVATYYHYFSKMK
[2]
  Kd: 75.8 µM
